Data reported in patent US20050118674A1, “Engineering of Controlled Deamidation Rates in Peptides, Proteins, and Similar Structures” (priority 2003, published 2005).
Where no end group is shown, it is not given here.

Experiment: First-order nonenzymatic deamidation of pentapeptides in Tris buffer
Assay type: physicochemical
Details: pH 7.4, 37.0° C., 0.15 M Tris HCl; Asn pentapeptides
Description: One of the discoveries made was that the sequence dependence of deamidation is much richer and covers a wider range than previously thought. In 37° C., pH 7.4, 0.15 M Tris buffer, the combination of XxxAsnYyy and XxxGlnYyy sequences where Xxx and Yyy are any of the naturally occuring amino acids covers a range from less than 1 day to over 15,000 days with the entire range in between available.
It is based on pentapeptide rates measure in 37° C., pH 7.4, 0.15 M Tris buffer. The applicability of a pentapeptide model to sequence dependence was verified in a separate set of experiments. All values listed in this table are experimental except for the four values in boxes, which were estimated from the rest of the data.
It is also based on pentapeptide rates measure in 37° C., pH 7.4, 0.15 M Tris buffer. In this case, the 52 values shown in bold were measured, and the rest of the values were derived from surface fitting.
Deamidation rates are affected by a wide variety of parameters, including, pH, Temperature, Ionic Strength, and Buffer Ions. These rates are measured under pH and Temperature conditions that are applicable to biological systems. The buffer type and concentration were chosen to minimize ion affects to the extent possible given the experimental limitations. Modification of these conditions will change the rates in Tables 1 and 2. As long as the conditions are not taken to extremes (i.e. high temperature, or strongly acidic or basic conditions) the qualitative sequence dependence should remain the same and the rates reported here can be used with necessary adjustments.

Substance	First-Order Deamidation Halftimes of GlyXxxAsnYyyGly
GlyTrpAsnGlyGly (GWNGG; printed: GlyTrpAsnGlyGly)	1.75 days
GlyGluAsnMetGly (GENMG; printed: GlyGluAsnMetGly)	59.6 days
GlyPheAsnMetGly (GFNMG; printed: GlyPheAsnMetGly)	58.6 days
GlyTyrAsnLysGly (GYNKG; printed: GlyTyrAsnLysGly)	55.1 days
GlyIleAsnThrGly (GINTG; printed: GlyIleAsnThrGly)	46.3 days
GlyGluAsnGlyGly (GENGG; printed: GlyGluAsnGlyGly)	1.45 days
GlyValAsnPheGly (GVNFG; printed: GlyValAsnPheGly)	66.6 days
GlyArgAsnPheGly (GRNFG; printed: GlyArgAsnPheGly)	68.3 days
GlyArgAsnGluGly (GRNEG; printed: GlyArgAsnGluGly)	68.3 days
GlyMetAsnArgGly (GMNRG; printed: GlyMetAsnArgGly)	58.8 days
GlyLysAsnTyrGly (GKNYG; printed: GlyLysAsnTyrGly)	96.7 days
GlyProAsnThrGly (GPNTG; printed: GlyProAsnThrGly)	63.1 days
GlySerAsnTyrGly (GSNYG; printed: GlySerAsnTyrGly)	64.7 days
GlyThrAsnLeuGly (GTNLG; printed: GlyThrAsnLeuGly)	110 days
GlyIleAsnAspGly (GINDG; printed: GlyIleAsnAspGly)	33.8 days
GlyPheAsnAspGly (GFNDG; printed: GlyPheAsnAspGly)	27.4 days
GlyGluAsnArgGly (GENRG; printed: GlyGluAsnArgGly)	80.9 days
GlyTyrAsnAspGly (GYNDG; printed: GlyTyrAsnAspGly)	28.4 days
GlySerAsnGluGly (GSNEG; printed: GlySerAsnGluGly)	59.7 days
GlyAspAsnValGly (GDNVG; printed: GlyAspAsnValGly)	241 days
GlyAmCysAsnArgGly (CNRG; not fully specified (N-terminus); printed as GlyAmCysAsnArgGly)	58.8 days

Same assay, conditions: pH 7.4, 37.0 ° C., 0.15 M Tris HCl; Gln pentapeptides; 52 values measured, rest derived from surface fitting

Substance	First-Order Deamidation Halftimes of GlyXxxGlnYyyGly
GlyAspGlnGlyGly (GDQGG; printed: GlyAspGlnGlyGly)	800 days
GlyProGlnCysGly (GPQCG; printed: GlyProGlnCysGly)	1600 days
GlyTyrGlnPheGly (GYQFG; printed: GlyTyrGlnPheGly)	8700 days
GlyMetGlnCysGly (GMQCG; printed: GlyMetGlnCysGly)	900 days
GlyMetGlnAlaGly (GMQAG; printed: GlyMetGlnAlaGly)	4400 days
GlyTrpGlnTrpGly (GWQWG; printed: GlyTrpGlnTrpGly)	19000 days
GlyGluGlnLeuGly (GEQLG; printed: GlyGluGlnLeuGly)	4300 days
GlyGluGlnArgGly (GEQRG; printed: GlyGluGlnArgGly)	5200 days
GlyGlyGlnTyrGly (GGQYG; printed: GlyGlyGlnTyrGly)	12000 days
GlyArgGlnArgGly (GRQRG; printed: GlyArgGlnArgGly)	2300 days
GlyLeuGlnGlyGly (GLQGG; printed: GlyLeuGlnGlyGly)	670 days
GlyTrpGlnProGly (GWQPG; printed: GlyTrpGlnProGly)	11000 days
GlyLeuGlnAlaGly (GLQAG; printed: GlyLeuGlnAlaGly)	6000 days
GlyPheGlnPheGly (GFQFG; printed: GlyPheGlnPheGly)	8200 days
GlySerGlnThrGly (GSQTG; printed: GlySerGlnThrGly)	5400 days
GlyAspGlnAlaGly (GDQAG; printed: GlyAspGlnAlaGly)	7100 days

Substance	First-Order Deamidation Halftimes of GlyXxxGlnYyyGly
GlyArgGlnValGly (GRQVG; printed: GlyArgGlnValGly)	5800 days
GlyLysGlnProGly (GKQPG; printed: GlyLysGlnProGly)	7700 days
GlyLeuGlnTyrGly (GLQYG; printed: GlyLeuGlnTyrGly)	12000 days
GlyIleGlnAlaGly (GIQAG; printed: GlyIleGlnAlaGly)	6200 days
GlyCysGlnPheGly (GCQFG; printed: GlyCysGlnPheGly)	6500 days
GlyGlyGlnArgGly (GGQRG; printed: GlyGlyGlnArgGly)	7200 days
GlyPheGlnGlyGly (GFQGG; printed: GlyPheGlnGlyGly)	660 days
GlyHisGlnProGly (GHQPG; printed: GlyHisGlnProGly)	11000 days
GlyTrpGlnTyrGly (GWQYG; printed: GlyTrpGlnTyrGly)	14000 days
GlySerGlnHisGly (GSQHG; printed: GlySerGlnHisGly)	6500 days
GlyLysGlnMetGly (GKQMG; printed: GlyLysGlnMetGly)	4000 days
GlyPheGlnHisGly (GFQHG; printed: GlyPheGlnHisGly)	6200 days
GlyProGlnAlaGly (GPQAG; printed: GlyProGlnAlaGly)	4700 days
GlyPheGlnGluGly (GFQEG; printed: GlyPheGlnGluGly)	8100 days
GlyThrGlnTyrGly (GTQYG; printed: GlyThrGlnTyrGly)	8400 days
GlyTrpGlnThrGly (GWQTG; printed: GlyTrpGlnThrGly)	5600 days
